Assay: soluble on expression in E. coli; label from the status in PepcDB or PDB records

Sequence	soluble on expression in E. coli
MKLSAYHKARGGLVEWWNPKNHYDLVYKSRVFTDTYSKDTIAVTNADAVILGGTGYDLGENLPDAVEHTRPDAALYPQFSDTAYGFLSRGCPRNCGFCIVSGKEGRRSRKVADLSEFWDGQKEIKLLDANLLACPDHEALILQLAESRAWVDFSQGLDIRLITPDNVALLNRVRTRAVHFAWDNPDEDLTGYFRRFLELTAIKSDRKRRVYVLTNYGSTHEQDLYRVETLRGMGYDPYVMVYDRPAAPKITRQLQRWVNNKRIFYTVKNFADYIPNRTGGIT	not soluble
MKLSKIKLPYFMNELTLTELDMGVAVPKILQAFKPYVDHQGLWIDLEMSYNGSFLMTLETKMNLTKLGKEPLVEALKVGEIGKEGCRPRAFCLADSDEESSSAGSSEEDDAPEPSGGDKQLLPGAEGYVGGHRTSKIMRFVDKITKSKYFQKATETEFIKKKIEEVSNTPLLLTVEVQECRGTLAVNIPPPPTDRVWYGFRKPPHVELKARPKLGEREVTLVHVTDWIEKKLEQEFQKVFVMPNMDDVYITIMHSAMDPRSTSCLLKDPPVEAADQP	not soluble
MKLTGKQTWEFENPLFVNSSGTAVGPKEKEGPLGHLFDKSYDEMHCNQKNWEMAERKLMEDAVQSALSKQNLKKEDIDIFLAGDLLNQNVTANYVARHLKIPFLCLFGACSTSMESIAISSALIDGGFAKRALAATSSHNATAERQFRYPTEYGGQKPGTATSTVTGSGAVVLSQQPGGIKITSATVGRVIDLGITDSQDMGSAMAPAAADTIKQHLEDLGRTPDDYDLILTGDLSGVGSPILKDLLKEEGINVGTKHNDCGLMIYTPDQQVFAGGSGCACSAVVTFAHIFKEIEAGRLNRVLVVATGALLSPTIIQQKESIPCIAHGVVFERAERGNALEHHHHHH	soluble
MKLTVVGLGYIGLPTSIMFAKHGVDVLGVDINQQTIDKLQSGQISIEEPGLQEVYEEVLSSGKLKVSTTPDASDVFIIAVPTPNNDDQYRSCDISLVMRALDSILSFLEKGNTIIVESTIAPKTMDDFVKPVIENLGFTIGEDIYLVHCPERVLPGKILEELVHNNRIIGGVTEACIEAGKRVYRTFVQGEMIETDARTAEMSKLMENTYRDVNIALANELTKICNNLNINVLDVIEMANKHPRVNIHQPGPGVGGHCLAVDPYFIIAKDPENAKLIQTGREINNSMPAYVVDTTKQIIKVLSGNKVTVFGLTYKGDVDDIRESPAFDIYELLNQEPDIEVCAYDPHVELDFVEHDMSHAVKDASLVLILSDHSEFKNLSDSHFDKMKHKVIFDTKNVVKSSFEDVSYYNYGNIFNFIDK	not soluble
MKLVILLSFVATVAVFAAPSAPAGLEEKLRALQEQLYSLEKENGVDVKQKEQPAAADTFLGFVPQKRMVAWQPMKRSMINEDSRAPLLHAIEARLAEVLRAGERLGVNPEEVLADLRARNQFQ	not soluble
MKLVLVSTRGVRSLNSTNFPAPWPFVKKGAFGQRKIGPMNYEKFKWPGQNREFPELSPKFQKLNPKELHRYTGVQADGFHDEKTGEFVPVKEMRSELVVPNLDGFKLRPYVSYRTDVQIEKRRVAYEKKVLEKGSERLADLHTVEDERWPPPKMSAETLFELAYGDTVRSAYKEGKYGNK	not soluble
MKLVRPQKISDQVLSVLEERIAEGVYAEGGKIPPERVLAEEFGVSRPSVRSALNVLVARQVLEARQGDGYYVSVKPQQDFLQSWQELLGKHSNWEQDVFDFSCHIEGCMAALAAERRTDADLKRIGFWLEKFEEACESGNLEHQSEADVSFHQTIADAAHNLLFSHLSGGLLKMLYRQTRSSLIYLNQEEDPRPKLMAQHRVLYEAISNRRPGEASEAAKAHLNYVASSILKDREYQSRNRHADTLAQNDLKRVQDWAV	soluble
MKLYMSVDMEGISGLPDDTFVDSGKRNYERGRLIMTEEANYCIAEAFNSGCTEVLVNDSHSKMNNLMVEKLHPEADLISGDVKPFSMVEGLDDTFRGALFLGYHARASTPGVMSHSMIFGVRHFYINDRPVGELGLNAYVAGYYDVPVLMVAGDDRAAKEAEELIPNVTTAAVKQTISRSAVKCLSPAKRGRLLTEKTAFALQNKDKVKPLTPPDRPVLSIEFANYGQAEWANLMPGTEIKTGTTTVQFQAKDMLEAYQAMLVMTELAMRTSFC	soluble
MKMFNIASEDDIKKGLASDVYFERSISTLTETCKDHRVAMEATVSGPLDTWINFSGLDEVLKLLEGIDVDVFAIPEGTILYPRDSNGIPVPFIRIEGNYCDFGMYETSILGMICQASGISTKSSKVRIAAGDCPFFSFGIRRMHPAVSPMIDRSAFIGGADGVSGILGAKLIGEEPIGTMPHALSIILGDDEAWRLTLKNTKNGQKSVILIDTYMDEKFAAIKVAEEFEHVDYIRLDTPSSRRGNFEALVREVKWELALRGRSDIKIMVSGGLDENTVAKLREAGAQAFGVGTSISSAKPFDFALDIVSIDDKPKTKRGKLSGKKSVLRCEKCRKVEVVPYGVESKPCSCGGVMHNIIVKYMEHGKLLSQYPEPKEIRKRTLSELEYFRSSN	soluble
MKMGENVTEYFEFAGVKNTENTLKYAIERAKLGISDIVVASSYGETAKMLFDMLEKENLNVNVVVVTYHQGFSGPDVVAMPENVKKDLEKRGATVFSGTHALSGVERGISKRFGGYGPVEVIAQTLKTLGQGVKVCYEVTVMAADAGLVSTKKEIIAIGGSSRGADSAVVIRPSNMNTFFDIELRELICMPKNKKKHEMAGDPLEHHHHHH	soluble
MKMNVESFNLDHTKVKAPYVRIADRKKGVNGDLIVKYDVRFKQPNRDHMDMPSLHSLEHLVAEIIRNHANYVVDWSPMGCQTGFYLTVLNHDNYTEILEVLEKTMQDVLKAKEVPASNEKQCGWAANHTLEGAQNLARAFLDKRAEWSEVGVGSHHHHHH	soluble
MKNFMKYLEVSKEVKEALENNKPVVALESTIISHGMPFPQNYETALKVEKVIREAGAIPATIAILDGKLKVGLSAEEIEFLGKEGSKIIKVSRRDLPYIVANKLNGATTVATTMIVAEMAGVKVFATGGIGGVHRGAETTMDISADLEELSNTNVAVICAGAKSILDLGLTLEYLETHGVPVLGYQTKKLPAFFTRESEFDLDYKIDTPKELADIITAKWEMGLNGGVVIANPIPVEYSMDYDEISKSIEEAVKEAEAKGIKGKESTPFLLAKIKEITKGKSLEANIQLVYNNAKLASEIAGNMK	not soluble
MKNFVAGAQSGRKIQSGGCAIHCQDCSISQLCIPFTLNEQELDQLDNIIERKKPIQKSQVLFKAGDSLNSIYAIRSGTIKSYTISESGEEQITSFHLPGDLVGFDAITQMQHPSFAQALETAMVCEIPFDILDDLAGKMPKLRQQILRLMSSEIKSDQEMILLLSKMNAEERLAAFIHNLSKRYSARGFSAREFRLTMTRGDIGNYLGLTVETISRLLGRFQKLGVISVQGKYITINDLNGLIELTGTNKTKITLVK	not soluble
MKNIKKNQVMNLGPNSKLLKEYKSQLIELNIEQFEAGIGLILGDAYIRSRDEGKTYCMQFEWKNKAYMDHVCLLYDQWVLSPPHKKERVNHLGNLVITWGAQTFKHQAFNKLANLFIVNNKKTIPNNLVENYLTPMSLAYWFMDDGGKWDYNKNSTNKSIVLNTQSFTFEEVEYLVKGLRNKFQLNCYVKINKNKPIIYIDSMSYLIFYNLIKPYLIPQMMYKLPNTISSETFLK	soluble
MKNIKMPVLVLAAEKDHITPPESVTAFFEKIPSKDKKLLLSDKGHIGLTVSGSSHRKIWPEAIKWVVERSK	not soluble
MKNIVSAFGIIPRNNRLMYIHSYQSYVWNTMVSRRIEEYGLRPVPGDLVLKGATPTYIEEDDVDNYSIHDVVMPLPGFDVIYPKHKISEAYREMLAADNLDIDNMRHTIRDYSLSGAYRRIIIRPQSVSWEVVAYDDPKIPLFNTDVDNLEGKPPPVFASEGKYRALKMDFSLPPSTYATMAIREVLKMDTSIKNQTQLNTSWLR	not soluble
MKNMLPAYIKIHDQIKKDIDEYRWAIGERLPSERDLAEQFAVSRMTLRQAVSLLVEEGVLERRVGSGTFVSSTRVQEKMRGTTSFTEIVKSQGKVPSSQLISYKKTIPNEQEVAKLGIFPTDNIIRMERVRYADQVPLVYEVASIPEKFIKDFKKEEITSHFFQTLQKHGYRIGKSQQTIYARLAKEKIAHYLEVEKGHAILGLTQVSYLEDGTAFEYVKSQYVGERFEFYLENN	not soluble
MKNTEIRKNIFPVGFYDDIHPDFSVNFQMNRCYTMTNDDVMLKEMREISPSIHNYEEFIEKFLELYNKALNEGHKLRAAYYLRTAEFYMTADHPQKQNYRKQFISLMQEYFNISDEQPYKVPYENGFLPAYRFTSEAPKGTIVMFGGFDSYVEEMFKMALFLKEAGYDVVFFDGPGQGSALEDYKIPMTHEWEKPVKSILDYFELDDVTLLGISLGGYLTVRAAAFEKRVHRVIADDILSNFYEVVLNTLPSQLKEKVNSLMSDGNEQEVNILFKDLMKKSLMVEWAINQGMHITGSKTPYEFLNKILLYNTSKISEKLEQDVLLMAAQEDHYIPLNQFFDQSKSLINVRSLTTRMFTRKETAQNHCQSGNLGLAFEVIANWIEQIQK	soluble
MKNVIACISSPRRVQSICDYAIWAVRRLGSELELLHVVEREQDAVPIADLSGGIWMGTQETLLKELAELDERRQQLAQEQGRQLLQAATERAREAGIQGLAGLARQGYLVDVLLELEDDARLFVMGQHDRPTKPSRLLPDQHLEAAVRALHRPVLVAG	not soluble
MKPDAHHVKQFLLRLQDDICQTLSAVDGANFVEDSWRREAGGGGRSRVLRNGGIFEQAGVNFSHVHGDAMPASATAHRPELAGRSFEAMGVSLVVHPHNPYIPTSHANVRFFIAEKPGADPVWWFGGGFDLTPYYGFEEDAVHWHRTARDLCQPFGDDVYPRYKKWCDDYFFLKHRNEQRGVGGLFFDDLNTPDFDHCFDFMQAVGNGYTRAYLPIVERRKAMVWGERERNFQLYRRGRYVEFNLVWDRGTLFGLQTGGRTESILMSMPPLVRWEYDWQPEAGSPEAALSEFIQVRDWILEHHHHHH	soluble
MKPHFRNTVERMYRDTFSYNFYNRPILSRRNTVWLCYEVKTKGPSRPPLDAKIFRGQVYSELKYHPEMRFFHWFSKWRKLHRDQEYEVTWYISWSPCTKCTRDMATFLAEDPKVTLTIFVARLYYFWDPDYQEALRSLCQKRDGPRATMKIMNYDEFQHCWSKFVYSQRELFEPWNNLPKYYILLHIMLGEILRHSMDPPTFTFNFNNEPWVRGRHETYLCYEVERMHNDTWVLLNQRRGFLCNQAPHKHGFLEGRHAELCFLDVIPFWKLDLDQDYRVTCFTSWSPCFSCAQEMAKFISKNKHVSLCIFTARIYDDQGRCQEGLRTLAEAGAKISIMTYSEFKHCWDTFVDHQGCPFQPWDGLDEHSQDLSGRLRAILQNQEN	soluble
MKPLSSQLNMKINDFYLPLLPVIGTGRLYITSKGHACHAYFREVSGHGIRFTLTYSGYEGRFWISEEQFIQWCQELFPYSESRLIPEDTIKLMILWVMQTALPEGDVSVDDVQFTMLNKDIYPVIENNNGENRLNVIILETTVQSLQYLINDNWQLVPHSNALFFDGYIVPGWTDYPVTELRVGDSLRLYHVDDSQERRCWIVINTPLATVNLSDNNLSVTDVLAADLLSALSNETVMNRIYCAIGTVHIDIHMLRNVKKDDIINSDGYHLFGGCQLIRNNTTIAYGSIVKINEDFYFTVSIVCD	soluble
MKPSIFRQALCVSAAAVLTTVSHSLTTPTAHAQGGTPGLMEFRWDSDRNYRKLYYFQTSSIENDRSEWYLHLRAKDRKTSIMKLTVTVPDYFDAKLRPERMTLCRTSSGSMTKRTRCLEEVPATIEVNKTQTAIEVYPDTPVPVEGDYSLRIKLFNPQGKRMYQLNALIQAPGDVPMSGYVGSWLIDMD	not soluble
